Assay results published in patent publication US7083932 (EUROSCREEN S A, dated 2006).

Molecular target: orphan receptor ORL1 (Opioid Receptor-Like 1) stably expressed in recombinant CHO(ORL1+) cells
Experiment: cell-based or functional assay

| inhibition of forskolin-induced accumulation of cAMP in recombinant CHO(ORL1+) cells, IC50 | inhibition of forskolin-induced accumulation of cAMP in CHO cells expressing the receptor, IC50 | Binder |
| --- | --- | --- |
| 0.9 nM | – | FGGFTGARKSARKLANQ |
| – | 1 nM | YGGFTGARKSARKLANQ [1Tyr analogue of the synthetic heptadecapeptide] |
